The values that follow come from patent CN117466995A (YIDAO BIOTECHNOLOGY SUZHOU CO LTD, dated 2024).

The target of assay [1] is T1, HPV45型衣壳蛋白L1病毒样颗粒(VLP)抗原 (HPV 45型) (UniProt P36741).
T1 sequence: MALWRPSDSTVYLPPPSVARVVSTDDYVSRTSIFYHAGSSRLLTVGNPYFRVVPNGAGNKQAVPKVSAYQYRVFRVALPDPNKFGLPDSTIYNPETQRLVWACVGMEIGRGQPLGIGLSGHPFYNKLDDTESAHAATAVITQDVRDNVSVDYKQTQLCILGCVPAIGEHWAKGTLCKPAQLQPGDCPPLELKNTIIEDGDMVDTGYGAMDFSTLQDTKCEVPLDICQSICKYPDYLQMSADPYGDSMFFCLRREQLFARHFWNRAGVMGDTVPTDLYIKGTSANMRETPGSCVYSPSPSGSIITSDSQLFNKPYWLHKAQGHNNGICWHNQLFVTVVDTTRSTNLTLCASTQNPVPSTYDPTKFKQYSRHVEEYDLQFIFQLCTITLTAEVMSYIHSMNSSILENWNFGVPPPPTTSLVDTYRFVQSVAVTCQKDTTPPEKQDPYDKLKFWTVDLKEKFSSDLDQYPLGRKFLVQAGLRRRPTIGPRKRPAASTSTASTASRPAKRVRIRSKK
Nature of the assay: sandwich ELISA, rabbit pAb R163 capture 1:500, mAb 1:20000; antigen 13.3 ug/ml, 2.5-fold series, step 5.

Assay [2] addresses T1, HPV45型衣壳蛋白L1病毒样颗粒(VLP)抗原 (HPV 45型). Put plainly: direct ELISA on coated HPV45 VLP, purified antibody titrated; positive if OD > 2.1 x NC.
The target is the same in assay [3]. Put plainly: sandwich ELISA, rabbit pAb R163 capture 1:500, mAb 1:20000; antigen 13.3 ug/ml, 2.5-fold series, step 3.
Assay [4] shares this target. Put plainly: sandwich ELISA, rabbit pAb R163 capture 1:500, mAb 1:20000; antigen 13.3 ug/ml, 2.5-fold series, step 1. For orientation: An ELISA detects its analyte on a solid surface through an enzyme-linked reagent.
Assay [5] shares this target. Put plainly: sandwich ELISA, rabbit pAb R163 capture 1:500, mAb 1:20000; antigen 13.3 ug/ml, 2.5-fold series, step 11.
Assay [6] has the same target. Nature of the assay: sandwich ELISA, rabbit pAb R163 capture 1:500, mAb 1:20000; antigen 13.3 ug/ml, 2.5-fold series, step 7.
The target is the same in assay [7]. Nature of the assay: sandwich ELISA, rabbit pAb R163 capture 1:500, mAb 1:20000; antigen 13.3 ug/ml, 2.5-fold series, step 10.
Assay [8] has the same target. Nature of the assay: sandwich ELISA, rabbit pAb R163 capture 1:500, mAb 1:20000; column 12, antigen amount not stated (only 11 dilutions described).
For assay [9] the target is unchanged. Put plainly: sandwich ELISA, rabbit pAb R163 capture 1:500, mAb 1:20000; antigen 13.3 ug/ml, 2.5-fold series, step 8.
The target of the next assay is T2, HPV 52 VLP抗原 (HPV 52, UniProt Q05138 27-529).
T2 sequence: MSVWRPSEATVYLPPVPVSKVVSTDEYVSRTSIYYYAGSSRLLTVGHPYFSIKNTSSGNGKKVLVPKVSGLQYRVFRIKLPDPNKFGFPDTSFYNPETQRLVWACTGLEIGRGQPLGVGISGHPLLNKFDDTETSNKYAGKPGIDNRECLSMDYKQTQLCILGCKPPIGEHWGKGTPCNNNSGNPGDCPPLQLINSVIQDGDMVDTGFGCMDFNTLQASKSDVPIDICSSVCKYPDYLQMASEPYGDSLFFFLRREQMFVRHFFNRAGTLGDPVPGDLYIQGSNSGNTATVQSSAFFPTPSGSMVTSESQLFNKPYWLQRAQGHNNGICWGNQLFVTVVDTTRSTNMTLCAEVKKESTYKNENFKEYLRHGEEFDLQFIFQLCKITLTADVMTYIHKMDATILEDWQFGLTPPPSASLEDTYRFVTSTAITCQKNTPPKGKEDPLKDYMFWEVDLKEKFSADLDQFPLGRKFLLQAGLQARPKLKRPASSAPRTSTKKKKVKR
Put plainly: direct ELISA on coated VLP antigens.

For another assay, the target named is T3, HPV 31 VLP抗原 (HPV 31, UniProt P17388 1-504).
T3 sequence: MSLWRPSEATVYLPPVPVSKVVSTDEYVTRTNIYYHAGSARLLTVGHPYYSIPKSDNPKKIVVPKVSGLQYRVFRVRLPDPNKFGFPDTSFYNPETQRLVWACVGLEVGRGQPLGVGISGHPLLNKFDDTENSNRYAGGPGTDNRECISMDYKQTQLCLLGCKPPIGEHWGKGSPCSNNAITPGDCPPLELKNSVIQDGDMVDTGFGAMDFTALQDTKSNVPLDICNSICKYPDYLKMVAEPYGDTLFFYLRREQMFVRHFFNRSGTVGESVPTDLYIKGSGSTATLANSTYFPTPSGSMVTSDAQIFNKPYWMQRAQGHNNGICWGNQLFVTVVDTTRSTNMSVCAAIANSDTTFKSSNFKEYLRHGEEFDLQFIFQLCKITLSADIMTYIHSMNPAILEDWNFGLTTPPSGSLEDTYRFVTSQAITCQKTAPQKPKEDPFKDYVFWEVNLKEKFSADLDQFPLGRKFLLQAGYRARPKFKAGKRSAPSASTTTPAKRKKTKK
Nature of the assay: direct ELISA on coated VLP antigens.

The target of assay [10] is T1, HPV45型衣壳蛋白L1病毒样颗粒(VLP)抗原 (HPV 45型). Put plainly: sandwich ELISA, rabbit pAb R163 capture 1:500, mAb 1:20000; antigen 13.3 ug/ml, 2.5-fold series, step 4.
Assay [11] shares this target. Nature of the assay: sandwich ELISA, rabbit pAb R163 capture 1:500, mAb 1:20000; antigen 13.3 ug/ml, 2.5-fold series, step 2.

“And” between values parts separate entries of the source, which are not always exact repeats. Equal entries are not always repeated.

B1: 杂交瘤细胞株7A5(CGMCC NO:45706)分泌的鼠源单克隆抗体 (antibody, V domains shown)
VH: QPGAELVKPGASVKLSCKASGYTFTSYWMHWVKQRPGQGLEWIGEINPSNGHTNYNEKFKSKATLTVDKSSSTAYMQLSSLTSEDSAVYYCAPCYGSSYDYYAMDYWGQGTSVTVSS
VL: DIVLTQSPASLAVSLGQRATISCRASQSVSTSSYSYMHWYQQKPGQPPKLLIKYASNLESGVPARFSGSGSGTDFTLNIHPVEEEDTATYYCQHSWEIPYTFGGGTKLEIK
notes: also called 鼠单抗7A5; 抗体7A5
Regarding B1, the OD is 1.54 OD and 1.56 OD in assay [1]; 2.9 OD and 2.78 OD in assay [3]; 3.12 OD in assay [4]; 0.066 OD and 0.056 OD in assay [5]; 0.379 OD and 0.358 OD in assay [6]; 0.068 OD and 0.072 OD in assay [7]. For the same molecule, the OD in assay [8] is 0.067 OD and 0.064 OD; in assay [9] it was 0.175 OD and 0.189 OD; in [10], 2.34 OD and 2.37 OD; in assay [11], 3.05 OD and 3 OD. In addition, the 灵敏度 in assay [2] turned out to be 0.0005 µg/mL. The binding result in the assay with HPV 52 VLP抗原 and with HPV 31 VLP抗原 was “no binding” in each case.

B2: 杂交瘤细胞株11G1(CGMCC NO:45707)分泌的鼠源单克隆抗体 (antibody, V domains shown)
VH: QVQLQQPGAELVKPGASVKLSCKASGYTFTSYWMHWVKRRPGQGLEWIGEINPSNGLTNYNEKFKSKGTLTVDKSSSAAFMHLSSLTSEDSAVYYCARFHGSDLYAMDYWGQGTSVTVSS
VL: B1 VL
notes: also called 鼠单抗11G1; 抗体11G1
As to B2, the OD in assay [1] was 0.922 OD and 1.02 OD; in [3], 2.67 OD and 2.65 OD; in [4] it was 3.1 OD and 3.01 OD; in assay [5], 0.05 OD and 0.046 OD; in [6] it was 0.218 OD and 0.206 OD; in assay [7] it was 0.062 OD and 0.051 OD. In addition, the OD was 0.045 OD and 0.05 OD in assay [8]; 0.115 OD and 0.108 OD in [9]; 1.82 OD and 1.98 OD in assay [10]; 3.03 OD and 3.09 OD in [11]. The molecule further yielded a 灵敏度 in assay [2] of 0.0005 µg/mL. Besides, the binding result with HPV 52 VLP抗原 and in the assay with HPV 31 VLP抗原 was “no binding” throughout.
